Tests used:
GST-LEC2-B3 = molecular target: T1, GST-LEC2-B3 (Arabidopsis thaliana, UniProt Q1PFR7); test: EMSA; BLI: Octet Qke, 1x Kinetics Buffer (ForteBio), pH 7.0, 0.05 uM biotinylated probe on streptavidin, temperature not stated; EMSA: MgCl2, 0.05% NP-40, 0.5 nM probe, 15 ul, room temperature 20 min, 6% gel in 0.5x TBE (rest of buffer not in material); settings: protein: recombinant; tags: GST (N-terminal, pGEX-2T); label: 5' biotin on strand 1 (strand 2 oligo also named 5-Biotin-probe); blunt
T1 chain: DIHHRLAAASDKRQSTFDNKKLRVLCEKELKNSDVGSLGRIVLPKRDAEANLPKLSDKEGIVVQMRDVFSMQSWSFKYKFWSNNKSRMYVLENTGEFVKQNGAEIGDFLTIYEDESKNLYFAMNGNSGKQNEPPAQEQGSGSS

GST-FUS3-B3 = molecular target: T2, GST-FUS3-B3 (Arabidopsis thaliana, UniProt Q9LW31); test: as above; settings: protein: recombinant; tags: GST (N-terminal, pGEX-2T); label: 5' biotin on strand 1 (strand 2 oligo also named 5-Biotin-probe); blunt
T2 chain: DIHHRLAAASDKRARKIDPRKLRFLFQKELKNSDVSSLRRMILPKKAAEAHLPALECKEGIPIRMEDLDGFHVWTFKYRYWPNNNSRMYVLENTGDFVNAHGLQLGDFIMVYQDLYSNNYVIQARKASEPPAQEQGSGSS

B1: Sph2 probe (dsDNA)
DNA 1: CACGGATCATGCATGGACGACACGGATCATGCATGGACGACACG
DNA 2: CGTGTCGTCCATGCATGATCCGTGTCGTCCATGCATGATCCGTG
Q: How did the Kd (GST-LEC2-B3) turn out when B1 was run?
A: Its Kd is 198 nM.

Q: What about the Kd (GST-FUS3-B3) of the same binder?
A: Its Kd is 1.28 nM.

Source: article PMC8136769, “Structural variation affecting DNA backbone interactions underlies adaptation of B3 DNA binding domains to constraints imposed by protein architecture”
